T1: human beta 2m-HLA-A2.1 (alpha 1, alpha 2)-H-2 Db (alpha 3 transmembrane cytoplasmic; HHD) monochain (human; mouse, UniProt P61769 21-119; P01899 207-362)
T1 chain (looked up): not shown


Biological target: T1, human beta 2m-HLA-A2.1 (alpha 1, alpha …)
Assay: cell-based or functional assay

IFN-gamma ELISPOT of CD4- spleen cells of immunized HLA-A2.1 (HHD) Tgm, in response to BM-DCs pulsed with the peptide	Binder
141 spot counts/well	AQPDTAPLPV [RAB6KIFL-A2-10-284 peptide]
117 spot counts/well	CIAEQYHTV [RAB6KIFL-A2-9-809 peptide]
149 spot counts/well	LLSDDDVVV [RAB6KIFL-A2-9-12 peptide]
